Consider five compounds from patent publication US8697117B2, “Drug-eluting films” (Ramot at Tel-Aviv University Ltd., priority 2010, dated 2014).

Values joined by “and” are separate entries in the source; they are usually repeats but may differ in a detail not shown here. Identical values can stand only once.

Holding throughout (type): physicochemical
The nature of data set [1]: Morphological characterization of porous films by SEM (mean pore diameter, porosity). Here is the method:
The morphology of the porous films (cryogenically fractured surfaces) was observed by scanning electron microscopy (SEM) using a JEOL JSM-6300 microscope at an accelerating voltage of 5 kV. The SEM samples were Au-sputtered prior to observation. The mean pore diameter (n=100 small pores or 50 large pores) and porosity of the observed morphologies were analyzed using the Sigma Scan Pro software, and statistics were calculated using SPSS 10 software. Statistical significance was determined based on ANOVA (Tukey-Kramer). The area occupied by the pores was calculated for each SEM fractograph using Sigma Scan Pro software in order to evaluate the porosity of the samples. Porosity was determined as the area occupied by the pores divided by the total area.

A short description of data set [2]: Encapsulation efficiency of the loaded agent in the films.
Data set [3] can be described thus: In vitro drug release from films in PBS at 37° C. (HPLC). Particulars: for time at which the drug was almost fully released: antibiotic-loaded 50:50 PDLGA films, O:A 6:1, 2% drug. As for the experimental part: Small films of 1.5 cm by 0.5 cm, were immersed in phosphate buffered saline (PBS) at 37° C. for 70 days in order to determine the various drug release kinetics therefrom in four repetitions. The release studies were conducted in closed glass tubes containing 3.0 ml PBS medium. The medium was removed completely at various time points, and at each sampling time fresh medium was introduced. The medium's drug concentration was determined using Jasco High Performance Liquid Chromatography (HPLC) with a UV 2075 plus detector and a reverse phase column kept at 25° C.

Data set [4] in a line: In vitro HRP release from porous films in PBS at 37° C. (micro BCA). As for the experimental part:
Small 1.5 cm by 2.0 cm films (four samples) were immersed in phosphate-buffered saline (PBS) at 37° C. for 28 days in order to determine the HRP release kinetics from these structures. The release studies were conducted in closed glass tubes containing 2.0 ml PBS medium. The medium was removed (completely) periodically, at each sampling time, and fresh medium was introduced. Sampling was carried out at 0.5, 1, 2, 3, 7, 14, 21 and 28 days.
The HRP concentration of each medium sample was determined using the micro BCA assay method, by measuring absorbance at 562 nm, using a SpectraMax 340 PC^384 plate reader spectrophotometer. Cumulative HRP release profiles were determined relative to the initial amount of HRP in the composite fibers (HRP released during the incubation period+the residue remaining in the fibers). Four repetitions were performed for each sample, and the results are presented as means±one standard deviation.

[5] abbreviates: drug-loaded 50:50 PDLGA 17.5% w/v film, no surfactant, 28 000 rpm.
[6] abbreviates: drug-loaded film, BSA (1%), 14 000 rpm.
[7] abbreviates: drug-loaded film, BSA (1%), 28 000 rpm.
[8] abbreviates: drug-loaded film, no surfactant, 14 000 rpm.
The mark [9] stands for this setting: drug-loaded film, BSA (5%), 28 000 rpm.
Where [10] appears, read: drug-loaded film, BSA (5%), 28 000 rpm, listed as paclitaxel.
Where [11] appears, read: 5% w/v BSA film versus film with no surfactant, 28000 rpm.
Where [12] appears, read: as reference formulation A but 0.5% w/w HRP.
Where [13] appears, read: as reference formulation A but 15% w/v polymer.
Setting [14] is: as reference formulation A but 25% w/v polymer.
Setting [15] is: as reference formulation A but 75/25 PDLGA.
[16] abbreviates: as reference formulation A but O:A 2:1.
The mark [17] stands for this setting: as reference formulation A but O:A 8:1.
The mark [18] stands for this setting: as reference formulation A but polymer initial MW 50 kDa.
The mark [19] stands for this setting: as reference formulation A but polymer initial MW 185 kDa.
Where [20] appears, read: HRP film, reference formulation A (1.0% w/w HRP, 17.5% w/v, O:A 4:1, 50/50, 83 kDa).
[21] abbreviates: as reference formulation A but 2.0% w/w HRP.
Where [22] appears, read: as reference formulation A but 20% w/v polymer.
Where [23] appears, read: as reference formulation A but O:A 6:1.

Turning to `CC(C)(O/N=C(\C(=O)N[C@@H]1C(=O)N2C(C(=O)[O-])=C(C[n+]3ccccc3)CS[C@H]12)c1csc(N)n1)C(=O)O` [Ceftazidime hydrate, ceftazidime hydrate], the Mean pore diameter in data set [1] (setting [5]) is on record as 1.1 ± 0.4 μm; in data set [1] (setting [6]), 1.5 ± 0.5 μm; in data set [1] (setting [7]) it was 0.7 ± 0.2 μm; in data set [1] (setting [8]), 1.8 ± 0.7 μm. Further, the Porosity in data set [1] (setting [5]) turned out to be 77.6 ± 2.2%; in data set [1] (setting [6]), 75.4 ± 0.5%; in data set [1] (setting [7]), 75.6 ± 0.5%; in data set [1] (setting [8]) it was 80.5 ± 3.0%. The Encapsulation efficiency in data set [2] (setting [5]) worked out at 37.0 ± 1.9%; in data set [2] (setting [6]) it was 58.4 ± 2.3%; in data set [2] (setting [7]) it was 50.7 ± 0.5%; in data set [2] (setting [8]) it was 41.7 ± 1.6%. Further, the “time at which the drug was almost fully released” value in data set [3] is given as at most 3 days.
With `CC(=O)O.NCc1ccc(S(N)(=O)=O)cc1` [Mafenide acetate, 4-Aminomethylbenzenesulfonamide acetate salt], the Mean pore diameter in data set [1] (setting [5]) is on record as 1.1 ± 0.3 μm; in data set [1] (setting [6]), 1.9 ± 0.5 μm; in data set [1] (setting [7]), 0.8 ± 0.2 μm; in data set [1] (setting [8]), 2.2 ± 0.9 μm. Moreover, the Porosity was 88.1 ± 1.2% in data set [1] (setting [5]), 83.7 ± 2.4% in data set [1] (setting [6]), 81.7 ± 2.5% in data set [1] (setting [7]) and 81.9 ± 2.6% in data set [1] (setting [8]). Besides, the Encapsulation efficiency in data set [2] (setting [5]) turned out to be 71.3 ± 0.5%; in data set [2] (setting [6]), 74.6 ± 4.2%; in data set [2] (setting [7]) it was 78.1 ± 2.1%; in data set [2] (setting [8]), 69.6 ± 1.0%. In data set [3], the “time at which the drug was almost fully released” value came to 21 days.
On to `CC(=O)O[C@H]1C(=O)[C@@]2(C)[C@H]([C@H](OC(=O)c3ccccc3)[C@]3(O)C[C@H](OC(=O)[C@H](O)[C@@H](NC(=O)c4ccccc4)c4ccccc4)C(C)=C1C3(C)C)[C@]1(OC(C)=O)CO[C@@H]1C[C@@H]2O` [Paclitaxel], for which the Mean pore diameter in data set [1] (setting [5]) was 2.6 ± 0.8 μm; in data set [1] (setting [9]), 0.6 ± 0.1 μm; in data set [1] (setting [10]) it was 0.6 μm. Further, the Porosity in data set [1] (setting [5]) amounted to 81.5 ± 3.8%; in data set [1] (setting [9]) it was 74.8 ± 3.2%. Further, the Encapsulation efficiency in data set [2] (setting [5]) worked out at 52.8 ± 0.6%; in data set [2] (drug-loaded 50:50 PDLGA 17.5% w/v film, no surfactant, 28 000 rpm, listed as paclitaxel), 53%; in data set [2] (setting [9]), 35.6 ± 2.9%; in data set [2] (setting [10]), 35%. Moreover, the “effect of BSA (fine nanostructure) on burst effect” value in data set [3] (setting [11]) is “did not significantly affect”. Besides, in data set [3] (setting [11]), the “effect of BSA (fine nanostructure) on release rate” value is on record as “only a slight increase”.
Consider “HRP: Horseradish peroxidase, 44 kDa; served as a surfactant and a protein-type biomolecule model”, for which the HRP burst release in data set [4] (setting [12]) amounted to 37%; in data set [4] (as reference formulation A but 2% w/w HRP), 74%; in data set [4] (setting [13]) it was 65%; in data set [4] (setting [14]) it was 47%; in data set [4] (setting [16]), 58%; in data set [4] (setting [17]), 48%. Besides, the HRP burst release was determined as 73% in data set [4] (setting [18]); 42% in data set [4] (setting [19]); 57% in data set [4] (reference formulation A: 50/50 PDLGA 83 kDa, 17.5% w/v polymer, 1% w/w HRP, O:A 4:1). Besides, in data set [4] (setting [15]), the “HRP burst release rate, 75/25 PDLGA compared to 50/50 PDLGA films” value was “little difference in the burst release rates”. Besides, the “Mean large pore diameter” value in data set [1] (setting [20]) amounted to 17.1 ± 2.7 μm; in data set [1] (setting [12]), 16.0 ± 1.6 μm; in data set [1] (setting [21]), 16.0 ± 1.4 μm; in data set [1] (setting [22]) it was 16.1 ± 2.3 μm; in data set [1] (setting [14]), 17.1 ± 1.9 μm; in data set [1] (setting [15]) it was 16.6 ± 3.6 μm. Besides, the “Mean large pore diameter” value was 17.3 ± 3.3 μm in data set [1] (setting [16]), 18.0 ± 3.8 μm in data set [1] (setting [23]), 17.2 ± 2.1 μm in data set [1] (setting [17]) and 16.4 ± 2.8 μm in data set [1] (setting [19]). Moreover, the “Mean small pore diameter” value in data set [1] (setting [20]) was 4.3 ± 0.8 μm; in data set [1] (setting [12]), 4.5 ± 1.3 μm; in data set [1] (setting [21]) it was 3.9 ± 0.4 μm; in data set [1] (setting [13]) it was 5.5 μm and 5.5 ± 1.1 μm; in data set [1] (setting [22]) it was 3.2 ± 0.5 μm; in data set [1] (setting [14]), 1.5 μm and 1.5 ± 0.2 μm. Also, the “Mean small pore diameter” value in data set [1] (setting [15]) is 5.9 ± 0.8 μm; in data set [1] (setting [16]) it was 4.7 μm and 4.7 ± 1.0 μm; in data set [1] (setting [23]), 3.0 ± 0.6 μm; in data set [1] (setting [17]) it was 2.3 μm and 2.3 ± 0.4 μm; in data set [1] (setting [18]), 7.1 μm and 7.1 ± 1.4 μm; in data set [1] (setting [19]) it was 2.5 μm and 2.5 ± 0.6 μm. The Porosity in data set [1] (setting [20]) came to 86.9 ± 2.6%; in data set [1] (setting [12]), 88.6 ± 1.4%; in data set [1] (setting [21]), 85.4 ± 2.2%; in data set [1] (setting [13]), 88.2 ± 2.9%; in data set [1] (setting [22]), 85.8 ± 2.9%; in data set [1] (setting [14]) it was 82.2 ± 3.3%. The Porosity in data set [1] (setting [15]) was 89.2 ± 0.8%; in data set [1] (setting [16]), 92.5% and 92.5 ± 1.0%; in data set [1] (setting [23]), 82.1 ± 1.6%; in data set [1] (setting [17]), 76.7% and 76.7 ± 2.5%; in data set [1] (setting [18]) it was 87.7 ± 2.0%; in data set [1] (setting [19]), 85.3 ± 1.2%. Besides, the Encapsulation efficiency came to 89% in data set [2] (HRP film, 0.5 w/w HRP); 87% in data set [2] (HRP film, 1 w/w HRP, 17.5% w/v polymer (reference formulation A)); 86% in data set [2] (HRP film, 2 w/w HRP); 90% in data set [2] (HRP film, 15.5% w/v polymer); 85% in data set [2] (HRP film, 25% w/v polymer).
Take Sorbitan monooleate [Span 80]: the “Mean pore diameter ± SD” value in data set [1] (film from reference formulation B with 5% of the named surfactant, 28000 rpm for 120 seconds) is 1.5 μm and 1.5 ± 0.4 μm.
